For this assay, the target named is Human Herpes Simplex Virus glycoprotein D (Human Herpes Simplex Virus) (UniProt Q69091). Nature of the assay: differential scanning calorimetry; peak height of the DSC thermogram of the pure protein compared with a DNA hairpin standard curve; ratio of the calorimetric concentration to the UV-Vis or dry-weight concentration read as stoichiometry; 150 mM NaCl, 10 mM potassium phosphate, 15 mM sodium citrate, pH 7.4; heating about 1°C/min.

One may read the stoichiometry N as a count of units in the complex or per binding partner.

On to “Human Herpes Simplex Virus glycoprotein D (from UniProt Q69091 26-394) (natural protein)”, for which the factor of the transition heat capacity over the average of the other molecules amounted to 2.2 fold, the percent of dimers in the sample was determined as 35%, the percent of trimers in the sample is 65% and the stoichiometry N came to 2.65.

Source of the values: publication PMC10906865.
